# Results published in patent US20140287471A1, “VARIANT CBH I POLYPEPTIDES WITH REDUCED PRODUCT INHIBITION” (BP CORPORATION NORTN AMERICA INC., priority 2011, published 2014).
# Substitutions are numbered along the chain they refer to.
# B1: 268Cys (protein, UniProt P62694 18-513, looked up, variant R268C)
# Exoglucanase 1: QSACTLQSETHPPLTWQKCSSGGTCTQQTGSVVIDANWRWTHATNSSTNCYDGNTWSSTLCPDNETCAKNCCLDGAAYASTYGVTTSGNSLSIGFVTQSAQKNVGARLYLMASDTTYQEFTLLGNEFSFDVDVSQLPCGLNGALYFVSMDADGGVSKYPTNTAGAKYGTGYCDSQCPRDLKFINGQANVEGWEPSSNNANTGIGGHGSCCSEMDIWEANSISEALTPHPCTTVGQEICEGDGCGGTYSDNCYGGTCDPDGCDWNPYRLGNTSFYGPGSSFTLDTTKKLTVVTQFETSGAINRYYVQNGVTFQQPNAELGSYSGNELNDDYCTAEEAEFGGSSFSDKGGLTQFKKATSGGMVLVMSLWDDYYANMLWLDSTYPTNETSSTPGAVRGSCSTSSGVPAQVESQSPNAKVTFSNIKFGPIGSTGNPSGGNPPGGNRGTTTTRRPATTTGSSPGPTQSHYGQCGGIGYSGPTVCASGTTCQVLNPYYSQCL
# B2: 268Ser (protein, UniProt P62694 18-513, looked up, variant R268S)
# Exoglucanase 1: B1 Exoglucanase 1 with C251S
# B3: 268Glu (protein, UniProt P62694 18-513, looked up, variant R268E)
# Exoglucanase 1: B1 Exoglucanase 1 with C251E
# B4: 411Thr (protein, UniProt P62694 18-513, looked up, variant R411T)
# Exoglucanase 1: B1 Exoglucanase 1 with C251R, R394T
# B5: 411Arg (protein, UniProt P62694 18-513, looked up)
# Exoglucanase 1: B1 Exoglucanase 1 with C251R
# B6: 411Met (protein, UniProt P62694 18-513, looked up, variant R411M)
# Exoglucanase 1: B1 Exoglucanase 1 with C251R, R394M
# B7: 411Ser (protein, UniProt P62694 18-513, looked up, variant R411S)
# Exoglucanase 1: B1 Exoglucanase 1 with C251R, R394S
# B8: 411His (protein, UniProt P62694 18-513, looked up, variant R411H)
# Exoglucanase 1: B1 Exoglucanase 1 with C251R, R394H
# B9: 411Gly (protein, UniProt P62694 18-513, looked up, variant R411G)
# Exoglucanase 1: B1 Exoglucanase 1 with C251R, R394G
# B10: 268A+411Cys (protein, UniProt P62694 18-513, looked up, variant R268A R411C)
# Exoglucanase 1: B1 Exoglucanase 1 with C251A, R394C
# B11: 268A+411Asp (protein, UniProt P62694 18-513, looked up, variant R268A R411D)
# Exoglucanase 1: B1 Exoglucanase 1 with C251A, R394D
# B12: 268A+411Thr (protein, UniProt P62694 18-513, looked up, variant R268A R411T)
# Exoglucanase 1: B1 Exoglucanase 1 with C251A, R394T
# B13: 268A+411Gln (protein, UniProt P62694 18-513, looked up, variant R268A R411Q)
# Exoglucanase 1: B1 Exoglucanase 1 with C251A, R394Q
# B14: 268A+411Glu (protein, UniProt P62694 18-513, looked up, variant R268A R411E)
# Exoglucanase 1: B1 Exoglucanase 1 with C251A, R394E
# B15: 268A+411— Met (protein, UniProt P62694 18-513, looked up, variant R268A R411M)
# Exoglucanase 1: B1 Exoglucanase 1 with C251A, R394M
# B16: 411— Tyr (protein, UniProt P62694 18-513, looked up, variant R411Y)
# Exoglucanase 1: B1 Exoglucanase 1 with C251R, R394Y
# B17: 411— Asp (protein, UniProt P62694 18-513, looked up, variant R411D)
# Exoglucanase 1: B1 Exoglucanase 1 with C251R, R394D
# B18: 411— Glu (protein, UniProt P62694 18-513, looked up, variant R411E)
# Exoglucanase 1: B1 Exoglucanase 1 with C251R, R394E
# B19: 411— Ser (protein, UniProt P62694 18-513, looked up, variant R411S)
# Exoglucanase 1: B1 Exoglucanase 1 with C251R, R394S
# B20: 268— Ala (protein, UniProt P62694 18-513, looked up, variant R268A)
# Exoglucanase 1: B1 Exoglucanase 1 with C251A
# B21: 411— Cys (protein, UniProt P62694 18-513, looked up, variant R411C)
# Exoglucanase 1: B1 Exoglucanase 1 with C251R, R394C
# Assay: 4-MUL assay, specific activity (Example 2)
# Format: biochemical
# Conditions: 268 single substitution
# Protocol: CBH I activity on was measured using the 4-MUL assay using gluconolactone to inhibit any BG activity. The fluorogenic 4-MUL substrate (SIGMA) was prepared at 100 mM concentration in DMSO. Assays were run in black 96-well-flat-bottomed plates (Costar) and 4-MU fluorescence was read on a BioTek H4 plate reader (ex/em 365/450 nm). Assay plates were filled with buffer (final concentrations of 100 mM MES, pH 6, 25 mM gluconolactone, with or without cellobiose; cellobiose concentrations are listed with appropriate data sets), to which enzyme mixture was added (10-30 μl, 5 μg/mL final) and then assays were initiated by addition of 4-MUL (0.5 mM final concentration in 100 μl total volume). Enzyme mixtures were either CBH I variants from harvested supernatants or standards. Standards included: a negative control, consisting of harvested supernatant from the CBH I knock-out strain; a positive control, consisting of wild-type CBH I from harvested supernatants; and, a commercial CBH I standard (E-CBHI from Megazymes). Activity standards were run by serial dilution of commercial CBH I from 40 to 0.02 μg/mL and 4-MU (SIGMA, prepared at 20 mM in DMSO) (in dilution increments of 2-fold; all dilutions were made using harvested supernatant from the knock-out control). Kinetic rates were monitored over the first 15 mins following 4-MUL addition; initial rates were calculated based on data in the linear range. After 1 hr, a final endpoint read was taken, both before and after reaction quenching (100 μL of 200 mM Sodium Carbonate, pH 10.0). Activity was calculated for kinetic and endpoint reads; background resulting from the CBH I knock-out supernatant remained negligible. 4MU standard curves and HPLC quantification values were used to calculate specific activity.
# The specific activity (SA) of the variant library was evaluated in a secondary 4-MUL assay. […] On average, a mutation at position 268 increases the specific activity by 2.5 fold over that of wild type. A mutation at 268 in combination with 411 is around 1.5-1.6 fold higher than wild-type, on average.
Molecule,268— Measured Specific Activity (SA),268— Δ SA* (change in specific activity; ratio of variant: WT)
B1,1.81 μmol 4 MU/min/mg CBH I,2.4
B2,1.85 μmol 4 MU/min/mg CBH I,2.4
B3,1.84 μmol 4 MU/min/mg CBH I,2.4

# Same assay, conditions: 411 single substitution
Molecule,411— Measured Specific Activity (SA),411— Δ SA* (change in specific activity; ratio of variant: WT)
B4,0.48 μmol 4 MU/min/mg CBH I,0.6
B5,0.83 μmol 4 MU/min/mg CBH I,1.1
B6,0.57 μmol 4 MU/min/mg CBH I,0.7
B7,0.60 μmol 4 MU/min/mg CBH I,0.8
B8,0.80 μmol 4 MU/min/mg CBH I,1.0
B9,0.60 μmol 4 MU/min/mg CBH I,0.8

# Same assay, conditions: double mutant 268A+411X
Molecule,268A+411— Measured Specific Activity (SA),268A+411— Δ SA* (change in specific activity; ratio of variant: WT)
B10,1.85 μmol 4 MU/min/mg CBH I,2.4
B11,2.21 μmol 4 MU/min/mg CBH I,2.9
B12,1.78 μmol 4 MU/min/mg CBH I,2.3
B13,1.22 μmol 4 MU/min/mg CBH I,1.6
B14,,0.6

# Same assay, conditions: primary screening; 10 μL enzyme; n=1
row,Molecule,SA (μmol 4 MU/min/mg) (MUL Data)
1,B15,0.87 μmol 4 MU/min/mg
2,B16,0.67 μmol 4 MU/min/mg
3,B17,0.23 μmol 4 MU/min/mg
4,B18,0.38 μmol 4 MU/min/mg
5,B19,0.51 μmol 4 MU/min/mg
6,B20,1.42 μmol 4 MU/min/mg
7,B21,0.52 μmol 4 MU/min/mg

# Assay: 4-MUL cellobiose tolerance/inhibition assay, dose-response IC50 (Example 2)
# Format: biochemical
# Conditions: 1 mM cellobiose; primary screening; n=1
# Method in brief: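 CBH I variant supernatants (5 μg/mL final, or undiluted if lower) on 0.5 mM 4-MUL in 100 mM MES pH 6 with 25 mM gluconolactone, fluorescence ex/em 365/450 nm. Activity measured at 6–8 cellobiose levels up to 100 mM; IC50 from four-parameter fit, bottom constrained to knockout background.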
row,Molecule,Tolerance at 1 mM CB (MUL Data)
1,B15,97%
2,B16,85%
3,B17,106%
4,B18,76%
5,B19,60%
6,B20,48%
7,B21,71%

# Same assay, conditions: 268 single substitution; averaged IC50 from Tables 8-11; read-out: 268— Measured (merged IC50)
row,Molecule,IC50
1,B1,380 µM
2,B2,500 µM
3,B3,630 µM

# Same assay, conditions: 411 single substitution; averaged IC50 from Tables 8-11; read-out: 411— Measured (merged IC50)
row,Molecule,IC50
1,B4,1970 µM
2,B5,50 µM
3,B6,3340 µM
4,B7,870 µM
5,B8,2930 µM
6,B9,1810 µM

# Same assay, conditions: double mutant 268A+411X; averaged IC50 from Tables 8-11; read-out: 268A+411— Measured (merged IC50)
row,Molecule,IC50
1,B10,10200 µM
2,B11,11500 µM
3,B12,11700 µM
4,B13,13700 µM
5,B14,14400 µM

# Same assay, conditions: double mutant 268A+411X; expected IC50 (additive values of single mutations); read-out: 268A+411— Expected IC50
row,Molecule,IC50
1,B10,1740 µM
2,B11,2280 µM
3,B12,2540 µM
4,B13,3090 µM
5,B14,3810 µM

# Same assay, conditions: double mutant 268A+411X; measured versus expected additive IC50
row,Molecule,synergy of double mutant (measured vs expected additive IC50)
1,B10,5.8
2,B11,5.0
3,B12,4.6
4,B13,4.5
5,B14,3.8

# Same assay, conditions: primary screening; 10 μL enzyme; cellobiose range 0.0001-100 mM; n=1; read-out: IC50 (MUL Data)
row,Molecule,IC50
1,B15,11500 µM
2,B16,5400 µM
3,B17,2080 µM
4,B18,2950 µM
5,B19,1050 µM
6,B20,870 µM
7,B21,1600 µM
